# Reference: US20200071424A1 (SHIONOGI, published 2020)
# Where two headings read alike, the source gives them in different places.
# T1: human [1-305]-mouse chimeric EL (human; mouse, UniProt Q9WVG5 306-500)
# T1 sequence: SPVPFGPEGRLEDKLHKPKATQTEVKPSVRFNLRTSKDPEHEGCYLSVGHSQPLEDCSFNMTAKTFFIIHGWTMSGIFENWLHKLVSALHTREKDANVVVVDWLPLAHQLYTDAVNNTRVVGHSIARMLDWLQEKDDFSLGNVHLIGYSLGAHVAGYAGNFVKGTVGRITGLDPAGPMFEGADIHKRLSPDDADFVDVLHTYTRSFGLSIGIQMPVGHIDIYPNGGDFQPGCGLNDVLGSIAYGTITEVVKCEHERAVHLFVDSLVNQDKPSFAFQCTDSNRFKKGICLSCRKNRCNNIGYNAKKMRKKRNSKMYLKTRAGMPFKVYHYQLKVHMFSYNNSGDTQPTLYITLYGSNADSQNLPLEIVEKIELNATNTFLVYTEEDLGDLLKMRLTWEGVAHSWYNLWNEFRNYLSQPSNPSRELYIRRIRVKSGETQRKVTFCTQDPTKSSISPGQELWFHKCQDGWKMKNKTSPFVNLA
# T2: human [1-157]-mouse chimeric EL (human; mouse, UniProt Q9WVG5 158-500)
# T2 construct: Heparin extract, detected by an anti-C2-tag antibody
# T2 sequence: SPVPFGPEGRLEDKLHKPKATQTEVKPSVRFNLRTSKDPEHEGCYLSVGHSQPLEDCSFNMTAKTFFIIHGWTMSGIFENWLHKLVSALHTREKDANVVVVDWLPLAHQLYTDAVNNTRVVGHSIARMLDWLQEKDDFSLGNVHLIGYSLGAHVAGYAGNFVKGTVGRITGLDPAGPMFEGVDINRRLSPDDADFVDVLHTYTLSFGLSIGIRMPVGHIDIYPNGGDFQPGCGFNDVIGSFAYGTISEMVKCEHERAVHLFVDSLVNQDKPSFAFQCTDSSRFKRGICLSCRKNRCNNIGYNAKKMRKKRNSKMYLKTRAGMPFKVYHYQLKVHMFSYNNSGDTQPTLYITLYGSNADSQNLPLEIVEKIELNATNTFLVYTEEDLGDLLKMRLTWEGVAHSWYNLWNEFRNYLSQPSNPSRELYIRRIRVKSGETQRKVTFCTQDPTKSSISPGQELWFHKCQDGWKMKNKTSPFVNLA
# T3: mouse EL (mouse, UniProt Q9WVG5 21-500)
# T3 construct: Heparin extract
# T3 sequence (looked up): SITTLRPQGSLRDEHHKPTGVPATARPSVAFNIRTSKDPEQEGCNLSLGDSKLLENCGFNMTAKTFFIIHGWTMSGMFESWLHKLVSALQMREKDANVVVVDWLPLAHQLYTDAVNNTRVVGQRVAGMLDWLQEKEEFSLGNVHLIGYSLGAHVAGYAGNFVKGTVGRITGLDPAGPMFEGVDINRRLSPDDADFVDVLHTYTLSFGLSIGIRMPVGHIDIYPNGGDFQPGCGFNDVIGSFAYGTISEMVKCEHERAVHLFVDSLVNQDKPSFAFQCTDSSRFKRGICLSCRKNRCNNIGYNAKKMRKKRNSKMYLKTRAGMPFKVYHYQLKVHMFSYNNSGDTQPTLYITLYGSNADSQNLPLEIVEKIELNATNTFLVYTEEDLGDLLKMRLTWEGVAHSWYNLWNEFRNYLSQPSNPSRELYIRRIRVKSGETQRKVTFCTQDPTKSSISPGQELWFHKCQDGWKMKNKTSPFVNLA
# T4: human EL (vascular endothelial lipase) (human, UniProt Q9Y5X9 21-500)
# T4 sequence: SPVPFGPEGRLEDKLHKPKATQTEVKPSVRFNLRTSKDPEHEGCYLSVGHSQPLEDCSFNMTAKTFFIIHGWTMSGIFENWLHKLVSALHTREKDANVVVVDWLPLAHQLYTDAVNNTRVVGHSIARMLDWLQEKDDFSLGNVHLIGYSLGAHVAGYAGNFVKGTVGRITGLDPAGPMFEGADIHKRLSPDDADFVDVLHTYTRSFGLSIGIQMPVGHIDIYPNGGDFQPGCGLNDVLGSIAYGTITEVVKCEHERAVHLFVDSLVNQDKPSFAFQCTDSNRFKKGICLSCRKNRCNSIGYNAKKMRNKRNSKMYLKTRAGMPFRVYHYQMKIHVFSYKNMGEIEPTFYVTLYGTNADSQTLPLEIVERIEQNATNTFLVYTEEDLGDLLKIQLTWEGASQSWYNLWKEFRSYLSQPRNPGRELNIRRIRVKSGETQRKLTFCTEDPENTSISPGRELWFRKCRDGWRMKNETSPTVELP
# T5: human HL (hepatic lipase) (human, UniProt P11150 23-499)
# T5 sequence (looked up): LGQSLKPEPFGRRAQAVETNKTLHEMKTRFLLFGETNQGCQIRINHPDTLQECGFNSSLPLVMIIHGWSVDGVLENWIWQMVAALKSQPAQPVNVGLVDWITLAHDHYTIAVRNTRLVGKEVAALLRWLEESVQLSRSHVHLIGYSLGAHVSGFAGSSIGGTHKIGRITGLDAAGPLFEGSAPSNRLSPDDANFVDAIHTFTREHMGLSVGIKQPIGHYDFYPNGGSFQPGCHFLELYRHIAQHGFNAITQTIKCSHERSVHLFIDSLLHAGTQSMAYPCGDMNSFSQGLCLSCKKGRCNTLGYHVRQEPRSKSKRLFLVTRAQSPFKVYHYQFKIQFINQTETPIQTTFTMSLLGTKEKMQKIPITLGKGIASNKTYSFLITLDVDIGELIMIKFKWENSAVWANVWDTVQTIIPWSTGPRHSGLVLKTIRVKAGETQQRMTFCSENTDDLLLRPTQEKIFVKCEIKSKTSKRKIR
# T6: human LPL (lipoprotein lipase) (human, UniProt P06858 28-475)
# T6 sequence (looked up): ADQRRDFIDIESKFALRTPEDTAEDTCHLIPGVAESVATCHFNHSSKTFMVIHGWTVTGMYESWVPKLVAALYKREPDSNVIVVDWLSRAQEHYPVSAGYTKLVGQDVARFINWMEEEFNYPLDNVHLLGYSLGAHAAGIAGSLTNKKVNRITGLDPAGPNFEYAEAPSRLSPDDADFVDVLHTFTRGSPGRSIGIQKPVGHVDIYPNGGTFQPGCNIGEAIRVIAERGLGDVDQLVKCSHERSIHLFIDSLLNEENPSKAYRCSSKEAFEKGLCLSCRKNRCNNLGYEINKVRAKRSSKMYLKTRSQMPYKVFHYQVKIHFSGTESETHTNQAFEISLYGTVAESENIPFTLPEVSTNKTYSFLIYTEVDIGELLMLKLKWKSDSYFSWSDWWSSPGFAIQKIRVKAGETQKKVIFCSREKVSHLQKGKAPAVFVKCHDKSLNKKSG
# Columns and labels:
# [1] = biological target: T1, human [1-305]-mouse chimeric EL; experiment: cell-based or functional assay
# cynomolgus monkey EL [2] = biological target: cynomolgus monkey EL (cynomolgus monkey); experiment: cell-based or functional assay
# baboon EL [3] = biological target: T7, baboon EL (baboon); experiment: Biacore; EL captured by anti-C2-tag Ab; bivalent fit
# T7 construct: Heparin extract
# Procedure: (§1) The binding affinities of anti-EL antibodies were measured using Biacore. […] Then, anti-EL antibodies were added and the binding affinities were calculated by bivalent fitting of BIAevaluation software.
# [4] = biological target: T1, human [1-305]-mouse chimeric EL; experiment: as above
# Procedure: as §1
# cynomolgus monkey EL [5] = biological target: T8, cynomolgus monkey EL (cynomolgus monkey); experiment: as above
# T8 construct: Heparin extract; also called cynomolgus EL; Cynomolgus EL
# Procedure: as §1
# baboon EL [6] = biological target: T7, baboon EL; experiment: ELISA: antibody captured on anti-mouse IgG-Fc plate, EL heparin extract added, detection with biotin anti-C2-tag antibody and HRP-streptavidin, A450
# Procedure: (§2) Assay buffer containing 15 μl of anti-EL antibody was added to anti-mouse IgG-Fc antibody-immobilized microtiter plate, and incubated for 2 hr. […] After washing the wells three times with 90 μL of washing buffer, 15 μl of assay buffer containing biotin-labeled anti-C2-tag antibody and HRP-labeled Streptavidin were added to the wells and incubated at room temperature for 1 hr. After washing the wells three times with 90 μL of washing buffer, 15 μL of TMB+—Substrate—Chromogen (DAKO) was added and incubated at room temperature for 30 min and then 15 μL of 0.05 M H2SO₄ was added and absorbance at 450 nm was measured (FIG. 3A to 3K).
# [7] = biological target: T2, human [1-157]-mouse chimeric EL; experiment: as above
# Procedure: as §2
# cynomolgus monkey EL [8] = biological target: T8, cynomolgus monkey EL; experiment: as above
# Procedure: as §2
# mouse EL [9] = biological target: T3, mouse EL; experiment: as above
# Procedure: as §2
# baboon EL [10] = biological target: T7, baboon EL; experiment: cell-based or functional assay
# rabbit EL = rabbit EL (rabbit); experiment: cell-based or functional assay
# cynomolgus monkey EL [11] = biological target: T8, cynomolgus monkey EL; experiment: cell-based or functional assay; remark: listed apart in the source
# [12] = biological target: human-mouse chimeric EL (construct not specified); experiment: cell-based or functional assay
# [13] = biological target: T4, human EL (vascular endothelial lipase); experiment: cell-based or functional assay
# [14] = biological target: T5, human HL (hepatic lipase); experiment: cell-based or functional assay
# [15] = biological target: T6, human LPL (lipoprotein lipase); experiment: cell-based or functional assay
# baboon EL [16] = biological target: T7, baboon EL; experiment: cell-based or functional assay; remark: listed apart in the source
# mouse EL [17] = biological target: T3, mouse EL; experiment: cell-based or functional assay
binder,measurement,setting,value
"13B3 (antibody, mouse IgG2a, V domains shown, mouse IgG2a from hybridoma; also called 13B3 (mouse mAb)) VH: EVQLQQSGPELLKPGASVKISCKASGYTFTEYTMHWVKQSHGKSLEWIGSINPYYGGTSYNEKFKDKATLTVDKSSNTAYMEFRSLTSEDCAVYYCARYGNYVGYFDYWGQGTTLTVSS VL: ENVLTQSPAIMSASLGEKVTMSCRASSSVHYMYWYQQKSDASPKLWIYYTSNLAPGVPDRFSGSGSGNSYSLTISSMEGEDAATYYCQQFTSSPYTFGGGTKLEIK",Neutralizing activity IC50,[1],4.1 nM
same,Neutralizing activity IC50,cynomolgus monkey EL [2],3.1 nM
same,Kd,baboon EL [3],5.1 nM
same,koff,baboon EL [3],0.00031 s⁻¹
same,kon,baboon EL [3],61000 M⁻¹ s⁻¹
same,Kd,[4],0.91 nM
same,koff,[4],0.00014 s⁻¹
same,kon,[4],150000 M⁻¹ s⁻¹
same,Kd,cynomolgus monkey EL [5],8.7 nM
same,koff,cynomolgus monkey EL [5],0.00041 s⁻¹
same,kon,cynomolgus monkey EL [5],47000 M⁻¹ s⁻¹
same,EC50 (read off the curve),baboon EL [6],~20 ng/mL
same,EC50 (read off the curve),[7],~4 ng/mL
same,EC50 (read off the curve),cynomolgus monkey EL [8],~10 ng/mL
same,binding result,mouse EL [9],no binding (tested: about 330 ng/mL)
same,Neutralizing activity IC50,baboon EL [10],2.6 nM
same,Neutralizing activity IC50,rabbit EL,13 nM
same,Neutralizing activity IC50,cynomolgus monkey EL [11],1.7 nM
same,Neutralizing activity IC50,[12],4.1 nM
"h53A11-S1 (antibody, V domains shown) VH: QVQLVQSGAEVKKPGASVKVSCKASGYTFTDYTMHWVRQAPGQRLEWMGGINPYYGGTTYNEKFKDRVTITRDTSASTAYMELSSLRSEDTAVYYCAKGDYYGGSYNYWGQGTTVTVSS VL: EIVMTQSLATLSVSPGERATLSCRASQDISNSLHWYQQKPGQAPRLLIKYASQSISGIPARFSGSGSGTEFTLTISSLQSEDFAVYYCQQSNSWPYTFGQGTKLEIK",Neutralizing activity IC50,[1],2.1 nM
same,Neutralizing activity IC50,[13],9.7 nM
same,Neutralizing activity IC50,[14],> 400 nM
same,Neutralizing activity IC50,[15],> 400 nM
"h16F6-S2 (antibody, V domains shown) VH: QVQLVQSGAEVKKPGASVKVSCKASGYTFTTYWIAWVRQAPGQGLEWMGEILPGSAKTKYNKKFKGRVTMTRDTSTSTVYMELSSLRSEDTAVYYCAVYDYGADYWGQGTTVTVSS VL: DIQMTQSPSSLSASVGDRVTITCKASQDVYTAVAWYQQKPGKSPKLLIYSASYRFTGVPSRFSGSGAGTDFTLTISSLQPEDFATYYCQQHYSIPRTFGGGTKVEIK",Neutralizing activity IC50,baboon EL [16],3.3 nM
same,Neutralizing activity IC50,mouse EL [17],3 nM
"h16F6-S3 (antibody, V domains shown) VH: QVQLVQSGAEVKKPGASVKVSCKASGYTFTTYWIAWVRQAPGQGLEWMGEILPGSAKTKYNKKFKGRVTMTRDTSTSTVYMELSSLRSEDTAVYYCAVYDYGADYWGQGTTVTVSS VL: DIQMTQSPSSLSASVGDRVTITCKASQDVYTAVAWYQQKPGKSPKLLIYSASYRFTGVPSRFTGSGAGTDFTLTISSLQPEDFATYYCQQHYSIPRTFGGGTKVEIK",Neutralizing activity IC50,baboon EL [16],3.1 nM
same,Neutralizing activity IC50,mouse EL [17],3.3 nM
"h16F6-S4 (antibody, V domains shown) VH: QVQLVQSGAEVKKPGASVKVSCKASGYTFTTYWIAWVRQAPGQGLEWMGEILPGSAKTKYNKKFKGRVTMTRDTSTSTVYMELSSLRSEDTAVYYCAVYDYGADYWGQGTTVTVSS VL: DIQMTQSPSSLSASVGDRVTITCKASQDVYTAVAWYQQKPGKSPKLLIYSASYRFTGVPSRFTGSGAGTDFTFTISSLQPEDFATYYCQQHYSIPRTFGGGTKVEIK",Neutralizing activity IC50,baboon EL [16],2.6 nM
same,Neutralizing activity IC50,mouse EL [17],2 nM
"h16F6-S5 (antibody, V domains shown) VH: QVQLVQSGAEVKKPGASVKVSCKASGYTFTTYWIAWVRQAPGQGLEWMGEILPGSAKTKYNKKFKGRVTMTRDTSTSTVYMELSSLRSEDTAVYYCAVYDYGADYWGQGTTVTVSS VL: DIQMTQSPSSLSASVGDRVSITCKASQDVYTAVAWYQQKPGKSPKLLIYSASYRFTGVPSRFTGSGAGTDFTFTISSLQPEDFATYYCQQHYSIPRTFGGGTKVEIK",Neutralizing activity IC50,baboon EL [16],2 nM
same,Neutralizing activity IC50,mouse EL [17],2.1 nM
